In patent US20250197923:

How the values were obtained:
Bst 2.0 = conditions: RT-LAMP time at 10000 copies RNA; 8 mM MgSO4, 50 mM KCl, pH 8.8; none at 100 copies
[1] = tested on: BD009-SDpol-1 (synthetic construct); conditions: RT-LAMP time at 10000 copies RNA; 7 mM MgSO4, 50 mM KCl, pH 8.8; 18.6 min at 10 copies

SARS-CoV-2 gene N LAMP target
activity (Bst 2.0): 30 min | activity [1]: 8.7 min
